Source: US20240117033A1 (Harvard, published 2024)

How the values were obtained:
[1] = target: T1, Mus musculus Mfsd2a with a single point mutation (Q67H), purified in LMNG/CHS/GDN detergent (Mus musculus, UniProt Q9DA75 1-534, limits assumed); test: cryo-EM of the complex, scFv as fiducial mark
T1 construct: Membrane transporter expressed in HEK293S cells and purified in detergent; also called mouse Mfsd2a Q67H
T1 sequence (looked up): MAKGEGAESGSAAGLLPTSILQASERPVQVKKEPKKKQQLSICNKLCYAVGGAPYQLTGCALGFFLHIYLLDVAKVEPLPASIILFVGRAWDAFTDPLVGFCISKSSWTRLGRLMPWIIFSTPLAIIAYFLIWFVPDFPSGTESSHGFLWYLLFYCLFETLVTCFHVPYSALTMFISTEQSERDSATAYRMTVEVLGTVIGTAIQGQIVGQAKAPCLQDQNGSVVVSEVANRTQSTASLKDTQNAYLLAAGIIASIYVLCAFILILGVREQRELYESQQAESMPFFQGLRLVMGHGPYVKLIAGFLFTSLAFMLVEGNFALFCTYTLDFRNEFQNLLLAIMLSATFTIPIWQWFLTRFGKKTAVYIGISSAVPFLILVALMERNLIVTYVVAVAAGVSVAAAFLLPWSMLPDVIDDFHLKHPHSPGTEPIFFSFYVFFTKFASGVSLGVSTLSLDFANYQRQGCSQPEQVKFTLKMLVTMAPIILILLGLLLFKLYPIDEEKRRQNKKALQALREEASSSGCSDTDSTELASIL
Source text: Mouse Mfsd2a was over-expressed in HEK293 cells and purified for structural studies. A fortuitous loss-of-function single point mutation Q67H (FIG. 6D) was identified that presumably arrests the transporter in an outward-facing conformation based on its location near the typical extracellular gate area in MFS transporters. It was theorized that this might reduce conformational heterogeneity and selected this variant for structural studies. The purified protein was biochemically stable and appeared monodisperse on size exclusion chromatography (FIG. 6A). To obtain the most homogenous samples for cryo-EM studies, the proteins were screened after being purified under various conditions. Mfsd2a purified in lauryl maltose neopentyl glycol/cholesteryl hemisuccinate/glycol-diosgenin (LMNG/CHS/GDN) detergent mixture was selected for further structural studies as particles appeared to be homogeneous in size and shape. Since Mfsd2a is small in size (59 kDa) with few features outside the micelle, it presents challenges for cryo-EM studies. To aid the particle alignment, we used a single-chain variable fragment (scFv) of antibody that binds to the extracellular side of Mfsd2a as a fiducial mark. This strategy permitted determination of the cryo-EM structure of Mfsd2a at 3.5 Å resolution (FIG. 1B; FIGS. 7A-7F).

[2] = target: T2, Mouse Mfsd2a, wild type (endogenous on brain endothelial cells of wildtype mice); stably expressed in HEK293 … (mouse, UniProt Q9DA75 1-534); test: IV injection into adult mice (10 ug/ml), brain sections stained with fluorescent secondary antibody
T2 construct: whole, on cells; also called endogenous Mfsd2a
T2 sequence (looked up): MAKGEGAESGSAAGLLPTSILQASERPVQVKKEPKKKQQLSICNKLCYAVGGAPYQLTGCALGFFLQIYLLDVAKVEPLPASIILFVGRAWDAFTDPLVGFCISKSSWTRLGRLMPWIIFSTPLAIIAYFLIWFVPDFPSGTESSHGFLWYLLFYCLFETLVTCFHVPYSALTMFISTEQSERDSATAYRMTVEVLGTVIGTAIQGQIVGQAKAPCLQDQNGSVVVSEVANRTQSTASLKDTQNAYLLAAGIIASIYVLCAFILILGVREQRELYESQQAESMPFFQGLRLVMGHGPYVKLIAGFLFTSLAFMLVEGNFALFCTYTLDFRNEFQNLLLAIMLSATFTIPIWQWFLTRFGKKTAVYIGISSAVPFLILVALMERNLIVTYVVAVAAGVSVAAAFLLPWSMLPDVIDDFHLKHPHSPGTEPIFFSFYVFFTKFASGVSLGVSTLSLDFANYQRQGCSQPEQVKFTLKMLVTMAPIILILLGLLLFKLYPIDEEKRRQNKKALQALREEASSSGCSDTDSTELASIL
Method: The specificity of the antibody described herein (D1, with CDRs of SEQ ID NOs: 1-6) was tested. IV-injection of D1 antibody or control antibody was IV injected at 10 ug/ml to adult mice. The antibodies were permitted to circulate for 15 minutes, followed by 10 ml PBS perfusion and fixation. Brains were sectioned and stained with fluorescent labeled secondary antibody. […] It specifically binds to the endogenous Mfsd2a that is expressed on the luminal side of the brain endothelial cell plasma membrane in the wildtype mice, absence in the Mfsd2a knockout mice. Control antibody injected animals show no staining.

Binder | binding result [1] | binding result [2]
Anti-Mfsd2a scFv (ScFv of SEQ ID NO: 7) (scFv, Isolated by phage display from chickens immunized with lipoparticles containing mouse Mfsd2a; Expressed as an scFv-Fc fusion with a human Fc; the scFv fragment was released by papain cleavage and purified by ion exchange; also called single-chain variable fragment) scFv: QPSSVSANPGETVKITCSGARYGYGWYQQKSPGSALVTLIYANNIRPSAIPSRFSGSKSGSTATLTITGVRAEDEAVYYCGNEDSITYAAFGAGTTLTVLGGSSRSSGGGGSSGGGGSAVTLDESGGGLQTPKGGLSLVCKASGFTFSSYDMAWVRQAPGKGLEWVAGITSTGSYTNYGAAVKGRATISRDNGQSTVRLQLNSLRAEDTATYFCAKSSFGCPYSCWYDIAGSIDAWGHGTEVIVS | binds | 
D1 antibody (with CDRs of SEQ ID NOs: 1-6) (antibody, V domains shown) VH: AVTLDESGGGLQTPKGGLSLVCKASGFTFSSYDMAWVRQAPGKGLEWVAGITSTGSYTNYGAAVKGRATISRDNGQSTVRLQLNSLRAEDTATYFCAKSSFGCPYSCWYDIAGSIDAWGHGTEVIVSS VL: ALTQPSSVSANPGETVKITCSGARYGYGWYQQKSPGSALVTLIYANNIRPSAIPSRFSGSKSGSTATLTITGVRAEDEAVYYCGNEDSITYAAFGAGTTLTVL |  | binds
